Data taken from the supplement of paper PMC10567573.

B1: KRT15 (parent)
chain: FGGGSTRGGSLLAGGGGFGGGSLS

Variants of: B1
Assay: protein stability index of a GFP-peptide fusion (GPS, HEK-293T) (PSI 1-6); higher = more stable
Conditions: c terminus: a fixed tail appended
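Note: lentivirally expressed fusions sorted by FACS into six bins by GFP to DsRed ratio, PSI derived from sequencing read proportions per bin multiplied by bin number.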

| Variant | protein stability index |
| --- | --- |
| FGQGSTRGGSLLAGGGGFGGGSLS | 2.17 |
| FGWGSTRGGSLLAGGGGFGGGSLS | 1.29 |
| FGNGSTRGGSLLAGGGGFGGGSLS | 1.93 |
| FGFGSTRGGSLLAGGGGFGGGSLS | 1.7 |
| FGLGSTRGGSLLAGGGGFGGGSLS | 2.42 |
| FGYGSTRGGSLLAGGGGFGGGSLS | 2.2 |
| FGAGSTRGGSLLAGGGGFGGGSLS | 1.79 |
| FGIGSTRGGSLLAGGGGFGGGSLS | 3.22 |
| FGMGSTRGGSLLAGGGGFGGGSLS | 2.74 |
| FGRGSTRGGSLLAGGGGFGGGSLS | 2.26 |
| FGDGSTRGGSLLAGGGGFGGGSLS | 1.32 |
| FGHGSTRGGSLLAGGGGFGGGSLS | 1.51 |
| FGGGSTRGGSLLAGGGGFGYGSLS | 2.52 |
| FGGGSTRGGSLLAGGGGFGCGSLS | 1.41 |
| FGGGSTRGGSLLAGGGGFGQGSLS | 1.09 |
| FGGGSTRGGSLLAGGGGFGPGSLS | 3.18 |
| FGGGSTRGGSLLAGGGGFGKGSLS | 2.1 |
| FGGGSTRGGSLLAGGGGFGTGSLS | 1.74 |
| FGGGSTRGGSLLAGGGGFGNGSLS | 2.17 |
| FGGGSTRGGSLLAGGGGFGSGSLS | 1.77 |
| FGGGSTRGGSLLAGGGGFGGGSIS | 1.61 |
| FGGGSTRGGSLLAGGGGFGGGSGS | 2.26 |
| FGGGSTRGGSLLAGGGGFGGGSMS | 2.73 |
| FGGGSTRGGSLLAGGGGFGGGSQS | 1.96 |

| Variant | protein stability index |
| --- | --- |
| FGGGSTRGGSLLAGGGGFFGGSLS | 2.8 |
| FGGGSTRGGSLLAGGGGFIGGSLS | 3.12 |
| FGGGSTRGGSLLAGGGGFNGGSLS | 2 |
| FGGGSTRGGSLLAGGGGFSGGSLS | 2.06 |
| FGGGSTRGGSLLAGGGGFDGGSLS | 1.47 |
| FGGGSTRGGSLLAGGGGFKGGSLS | 3.1 |
| FGGGSTRGGSLLAGGGGFEGGSLS | 2.35 |
| FGGGSTRGVSLLAGGGGFGGGSLS | 1.84 |
| FGGGSTRGQSLLAGGGGFGGGSLS | 3.25 |
| FGGGSTRGDSLLAGGGGFGGGSLS | 2.73 |
| FGGGSTRGNSLLAGGGGFGGGSLS | 2.35 |
| FGGGSTRGSSLLAGGGGFGGGSLS | 1.05 |
| MGGGSTRGGSLLAGGGGFGGGSLS | 2.08 |
| SGGGSTRGGSLLAGGGGFGGGSLS | 3.46 |
| YGGGSTRGGSLLAGGGGFGGGSLS | 2.25 |
| IGGGSTRGGSLLAGGGGFGGGSLS | 2.53 |
| KGGGSTRGGSLLAGGGGFGGGSLS | 4.35 |
| FGGGSTRGGSLLAPGGGFGGGSLS | 2.17 |
| FGGGSTRGGSLLAIGGGFGGGSLS | 1.85 |
| FGGGSTRGGSLLASGGGFGGGSLS | 2.43 |
| FGGGSTRGGSLLANGGGFGGGSLS | 2.94 |
| FGGGSTRGGSLLARGGGFGGGSLS | 2.42 |
| FGGGSTRGGSLLAGGTGFGGGSLS | 1.09 |
| FGGGSTRGGSLLAGGQGFGGGSLS | 2.4 |

| Variant | protein stability index |
| --- | --- |
| FGGGSTRGGSLLAGGVGFGGGSLS | 1.28 |
| FGGGSTRGGSLLAGGKGFGGGSLS | 2.14 |
| FGGGSTRGGSLLAGGYGFGGGSLS | 1.9 |
| FGGGSTRGGSLLAGGMGFGGGSLS | 2.16 |
| FGGGSTRGGSLLAGGRGFGGGSLS | 1.56 |
| FGGGSTRGGSLLAGGEGFGGGSLS | 1.55 |
| FGGGSTRGGSLLAGGDGFGGGSLS | 1.84 |
| FGGGSTRGGSLLAGVGGFGGGSLS | 1.34 |
| FGGGSTRGGSLLAGHGGFGGGSLS | 3.02 |
| FGGGSTRGGSLLAGRGGFGGGSLS | 2.08 |
| FGGGSTRGGSLLAGKGGFGGGSLS | 3.17 |
| FGGGSTRGGSLLAGAGGFGGGSLS | 1.9 |
| FGGGSTRGGSLLAGCGGFGGGSLS | 1.56 |
| FGGGSTRGGKLLAGGGGFGGGSLS | 1.28 |
| FGGGSTRGGRLLAGGGGFGGGSLS | 1.4 |
| FGGGSTRGGWLLAGGGGFGGGSLS | 4.19 |
| FGGGSTRGGQLLAGGGGFGGGSLS | 1.89 |
| FGGGSTRGGPLLAGGGGFGGGSLS | 2.12 |
| FGGGSTRGGILLAGGGGFGGGSLS | 1.79 |
| FGGGSTREGSLLAGGGGFGGGSLS | 1.64 |
| FGGGSTRIGSLLAGGGGFGGGSLS | 1.58 |
| FGGGSTRRGSLLAGGGGFGGGSLS | 2.5 |
| FGGGSTRDGSLLAGGGGFGGGSLS | 1.57 |
| FGGGSTRFGSLLAGGGGFGGGSLS | 3.67 |

| Variant | protein stability index |
| --- | --- |
| FGGGSTRSGSLLAGGGGFGGGSLS | 1.62 |
| FGGGSTRTGSLLAGGGGFGGGSLS | 1.8 |
| FGGGSTRGGSLYAGGGGFGGGSLS | 1.52 |
| FGGGSTRGGSLQAGGGGFGGGSLS | 2.67 |
| FGGGSTRGGSLCAGGGGFGGGSLS | 1.7 |
| FGGGSTRGGSLDAGGGGFGGGSLS | 3.38 |
| FGGGSTRGGSLEAGGGGFGGGSLS | 2.72 |
| FGGGSTRGGSLIAGGGGFGGGSLS | 2.75 |
| FGGGSTRGGSLGAGGGGFGGGSLS | 3.23 |
| FGGGSTRGGSLPAGGGGFGGGSLS | 3.24 |
| FGGGSTRGGSLMAGGGGFGGGSLS | 2.58 |
| FGGGSTRGGSLRAGGGGFGGGSLS | 3.6 |
| FGGGSTRGGSLNAGGGGFGGGSLS | 3.01 |
| FGGGFTRGGSLLAGGGGFGGGSLS | 2.1 |
| FGGGPTRGGSLLAGGGGFGGGSLS | 1.53 |
| FGGGATRGGSLLAGGGGFGGGSLS | 1.57 |
| FGGGQTRGGSLLAGGGGFGGGSLS | 2.55 |
| FGGGSTRGGSLLAGGGGFGGGSLD | 1.61 |
| FGGGSTRGGSLLAGGGGFGGGSLK | 1.49 |
| FGGGSTRGGSLLAGGGGFGGGSLT | 2.51 |
| FGGGSTRGGSLLAGGGGFGGGSLN | 1.71 |
| FGGGSTRGGSLLAGGGGFGGGSLM | 3.68 |
